# B1: Growth factor receptor-bound protein 14 (Homo sapiens), Q14449 (parent)
# chain: MTTSLQDGQSAASRAAARDSPLAAQVCGAAQGRGDAHDLAPAPWLHARALLPLPDGTRGCAADRRKKKDLDVPEMPSIPNPFPELCCSPFTSVLSADLFPKANSRKKQVIKVYSEDETSRALDVPSDITARDVCQLLILKNHYIDDHSWTLFEHLPHIGVERTIEDHELVIEVLSNWGIEEENKLYFRKNYAKYEFFKNPMYFFPEHMVSFATETNGEISPTQILQMFLSSSTYPEIHGFLHAKEQGKKSWKKIYFFLRRSGLYFSTKGTSKEPRHLQFFSEFGNSDIYVSLAGKKKHGAPTNYGFCFKPNKAGGPRDLKMLCAEEEQSRTCWVTAIRLLKYGMQLYQNYMHPYQGRSGCSSQSISPMRSISENSLVAMDFSGQKSRVIENPTEALSVAVEEGLAWRKKGCLRLGTHGSPTASSQSSATNMAIHRSQPWFHHKISRDEAQRLIIQQGLVDGVFLVRDSQSNPKTFVLSMSHGQKIKHFQIIPVEDDGEMFHTLDDGHTRFTDLIQLVEFYQLNKGVLPCKLKHYCARIAL
# Variants of: B1
# Conditions: with INSR
row,Variant,effect of a mutation on the interaction
1,S358A;S362A;S366A,increasing interaction strength
